Patent US20220323445A1, “REDUCING IMMUNOGENICITY TO PEGLOTICASE” (Horizon Therapeutics Ireland DAC, priority 2020, published 2022)

Tested on: serum uric acid (sUA)
Assay: Serum uric acid (sUA) levels and sUA responders, open-label study of pegloticase with MTX (NCT03635957)
Format: in vivo, human
Protocol: The primary objective is to estimate the response rate during Month 6 (Weeks 20, 22, and 24), as measured by the sustained normalization of serum uric acid (SUA) to <6 mg/dL for at least 80% of the time during Month 6 in subjects receiving KXX with MTX.
The primary efficacy outcome endpoint is the sustained normalization of SUA to <6 mg/dL for at least 80% of the time during month 6 (weeks 20, 22, and 24) in subjects receiving KXX with MTX. This is slightly below the urate solubility threshold and this threshold has been the accepted standard for nearly all modern gout trials. Participants who achieve this endpoint were classified as “responders.” Serum uric acid (SUA) responders may also be defined as participants achieving and maintaining SUA <6 mg/dL for at least 80% of the time during Month 6 (Weeks 20, 22, and 24).
Blood samples may be collected prior to each pegloticase infusion for measurement of SUA levels using the Beckman Coulter AU System Uric Acid procedure. Participants were declared “non-responders” if there were SUA measures >6 mg/dL at 2 consecutive study visits beginning with the week 2 visit. […] If the SUA goal is not maintained before or at the 12-week mark, it was assumed that the participant had developed clinically relevant anti-pegloticase antibody and they received no further infusions. This assumption and subsequent discontinuation of pegloticase was consistent with the protocol of large phase III randomized controlled trials and the product label. A formal stopping rule was 2 occasions of SUA levels of greater than 6 mg/dL.
Clinical Chemistry—Blood samples were collected prior to each pegloticase infusion for measurement of SUA levels (primary efficacy parameter) using the Beckman Coulter AU System Uric Acid procedure. In this procedure uric acid is converted to hydrogen peroxide. Hydrogen peroxide reacts with reagent to produce a chromophore which is read bichromatically at 660/800 nm. The amount of dye formed is proportional to the uric acid concentration in the sample.
Serum samples for measurement of SUA levels were collected at the Screening Visit, the Week −4 Visit (prior to the first dose of MTX), and the Week −2 Visit during the MTX Run-in Period; within 48 hours prior to each pegloticase infusion and after the end of each pegloticase infusion prior to discharge from the site during the Pegloticase+IMM Period; at the non-infusion Week 52/End of Study/Early Termination Visits and at the Post Treatment 3 and 6 Month Follow-up Visits. Additional serum samples for SUA levels were collected at optional non-infusion (Frequent Sampling) Visits at Weeks 1 and 7. […] Subjects with SUA level >6 mg/dL at 2 consecutive visits beginning at Week 2 visit discontinued treatment, completed the End of Pegloticase Infusion Visit procedures within 2 weeks and continued the subject visits according to the protocol (without treatment).
Efficacy analyses were performed using the modified intention-to-treat (mITT) population, defined as all enrolled subjects who received ≥1 dose of pegloticase. The proportion of Month 6 responders was summarized, along with a 95% confidence interval for the proportion. The proportion of Month 3 and overall (Months 3 and 6 combined) responders was analyzed similarly.
A subject was declared a non-responder if the subject had SUA level >6 mg/dL at 2 consecutive study visits beginning with the Week 2 Visit. In addition, a subject who withdraws from study treatment for any reason after the first dose of pegloticase in the KXX+MTX Period and prior to Month 6 (for the primary endpoint) or Month 3 (for the secondary endpoint) was considered a non-responder if SUA values were not collected at the planned time points.
Patients were administered oral MTX (15 mg/week) and folate (1 mg/day) 4 weeks prior to the first pegloticase infusion (Day 1) and throughout the pegloticase treatment period. […]

[1] = Week 2 - Pre-Infusion, Month 6 sUA Non-Responders
[2] = Week 2 - Pre-Infusion, Month 6 sUA Responders
[3] = Week 2 - Pre-Infusion, mITT, n=14
[4] = Week 4 - Post-Infusion, Month 6 sUA Non-Responders
[5] = Week 4 - Post-Infusion, Month 6 sUA Responders
[6] = Week 4 - Post-Infusion, mITT, n=13
[7] = Week 4 - Pre-Infusion, Month 6 sUA Non-Responders
[8] = Week 4 - Pre-Infusion, Month 6 sUA Responders
[9] = Week 4 - Pre-Infusion, mITT, n=14
[10] = Week 6 - Post-Infusion, Month 6 sUA Non-Responders
[11] = Week 6 - Post-Infusion, Month 6 sUA Responders
[12] = Week 6 - Post-Infusion, mITT, n=12
[13] = Week 6 - Pre-Infusion, Month 6 sUA Non-Responders

B1: pegloticase (protein)
chain: TYKKNDEVEFVRTGYGKDMIKVLHIQRDGKYHSIKEVATTVQLTLSSKKDYLHGDNSDVIPTDTIKNTVNVLAKFKGIKSIETFAVTICEHFLSSFKHVIRAQVYVEEVPWKRFEKNGVKHVHAFIYTPTGTHFCEVEQIRNGPPVIHSGIKDLKVLKTTQSGFEGFIKDQFTTLPEVKDRCFATQVYCKWRYHQGRDVDFEATWDTVRSIVLQKFAGPYDKGEYSPSVQKTLYDIQVLTLGQVPEIEDMEISLPNIHYLNIDMSKMGLINKEEVLLPLDNPYGKITGTVKRKLSSRL
modifications: monomethoxy PEG conjugated; Krystexxa Sequence
notes: covalent conjugate of uricase produced by a genetically modified strain of Escherichia coli and monomethoxypoly (ethylene glycol)
sUA < 6 mg/dL, % [1]: (66.7%) | sUA Change from Baseline, Mean [1]: -5.17 mg/dL | sUA Change from Baseline, Median [1]: -5.70 mg/dL | sUA Observed, Mean [1]: 3.57 mg/dL | sUA Observed, Median [1]: 2.70 mg/dL | sUA < 6 mg/dL, % [2]: (100%) | sUA Change from Baseline, Mean [2]: -8.64 mg/dL | sUA Change from Baseline, Median [2]: -8.80 mg/dL | sUA Observed, Mean [2]: 0.63 mg/dL | sUA Observed, Median [2]: 0.30 mg/dL | sUA < 6 mg/dL, n (%) [3]: 13 (92.9%) | sUA Change from Baseline, Mean (SD) [3]: −7.90 (2.878) mg/dL | sUA Change from Baseline, Median [3]: -8.70 mg/dL | sUA Observed, Mean (SD) [3]: 1.26 (2.163) mg/dL | sUA Observed, Median [3]: 0.30 mg/dL | sUA < 6 mg/dL, % [4]: (100%) | sUA Change from Baseline, Mean [4]: -8.60 mg/dL | sUA Change from Baseline, Median [4]: -8.60 mg/dL | sUA Observed, Mean [4]: 0.30 mg/dL | sUA Observed, Median [4]: 0.30 mg/dL | sUA < 6 mg/dL, % [5]: (100%) | sUA Change from Baseline, Mean [5]: -8.97 mg/dL | sUA Change from Baseline, Median [5]: -8.80 mg/dL | sUA Observed, Mean [5]: 0.30 mg/dL | sUA Observed, Median [5]: 0.30 mg/dL | sUA < 6 mg/dL, n (%) [6]: 13 (100%) | sUA Change from Baseline, Mean (SD) [6]: −8.92 (2.577) mg/dL | sUA Change from Baseline, Median [6]: -8.80 mg/dL | sUA Observed, Mean (SD) [6]: 0.30 (0.000) mg/dL | sUA Observed, Median [6]: 0.30 mg/dL | sUA < 6 mg/dL, % [7]: (33.3%) | sUA Change from Baseline, Mean [7]: -3.70 mg/dL | sUA Change from Baseline, Median [7]: -1.80 mg/dL | sUA Observed, Mean [7]: 5.03 mg/dL | sUA Observed, Median [7]: 6.60 mg/dL | sUA < 6 mg/dL, % [8]: (100%) | sUA Change from Baseline, Mean [8]: -8.59 mg/dL | sUA Change from Baseline, Median [8]: -8.60 mg/dL | sUA Observed, Mean [8]: 0.68 mg/dL | sUA Observed, Median [8]: 0.30 mg/dL | sUA < 6 mg/dL, η (%) [9]: 12 (85.7%) | sUA Change from Baseline, Mean (SD) [9]: −7.54 (3.768) mg/dL | sUA Change from Baseline, Median [9]: -8.00 mg/dL | sUA Observed, Mean (SD) [9]: 1.61 (2.637) mg/dL | sUA Observed, Median [9]: 0.30 mg/dL | sUA < 6 mg/dL, % [10]: (100%) | sUA Change from Baseline, Mean [10]: -9.10 mg/dL | sUA Change from Baseline, Median [10]: -9.10 mg/dL | sUA Observed, Mean [10]: 0.30 mg/dL | sUA Observed, Median [10]: 0.30 mg/dL | sUA < 6 mg/dL, % [11]: (100%) | sUA Change from Baseline, Mean [11]: -8.97 mg/dL | sUA Change from Baseline, Median [11]: -8.80 mg/dL | sUA Observed, Mean [11]: 0.30 mg/dL | sUA Observed, Median [11]: 0.30 mg/dL | sUA < 6 mg/dL, n (%) [12]: 12 (100%) | sUA Change from Baseline, Mean (SD) [12]: −8.98 (2.679) mg/dL | sUA Change from Baseline, Median [12]: -8.95 mg/dL | sUA Observed, Mean (SD) [12]: 0.30 (0.000) mg/dL | sUA Observed, Median [12]: 0.30 mg/dL | sUA < 6 mg/dL, % [13]: (50.0%) | sUA Change from Baseline, Mean [13]: -4.65 mg/dL | sUA Change from Baseline, Median [13]: -4.65 mg/dL | sUA Observed, Mean [13]: 4.25 mg/dL | sUA Observed, Median [13]: 4.25 mg/dL
